Measurements from US20110263454A1, “Methods of Identifying Functional Characteristics of Promoters, Transcription Modifying Proteins and Transcription Modulating Agents” (Salk Institute for Biological Studies, priority 2008, published 2011).

B1: ERR3: Estrogen Related Receptor γ (NR3B3, ERRg), cDNA driver (protein, UniProt P62508 1-458, looked up)
Estrogen-related receptor …: MDSVELCLPESFSLHYEEELLCRMSNKDRHIDSSCSSFIKTEPSSPASLTDSVNHHSPGGSSDASGSYSSTMNGHQNGLDSPPLYPSAPILGGSGPVRKLYDDCSSTIVEDPQTKCEYMLNSMPKRLCLVCGDIASGYHYGVASCEACKAFFKRTIQGNIEYSCPATNECEITKRRRKSCQACRFMKCLKVGMLKEGVRLDRVRGGRQKYKRRIDAENSPYLNPQLVQPAKKPYNKIVSHLLVAEPEKIYAMPDPTVPDSDIKALTTLCDLADRELVVIIGWAKHIPGFSTLSLADQMSLLQSAWMEILILGVVYRSLSFEDELVYADDYIMDEDQSKLAGLLDLNNAILQLVKKYKSMKLEKEEFVTLKAIALANSDSMHIEDVEAVQKLQDVLHEALQDYEAGQHMEDPRRAGKMLMTLPLLRQTSTKAVQHFYNIKLEGKVPMHKLFLEMLEAKV
B2: CTF1: COUP-TF1 (NR2F1), cDNA driver (protein, UniProt P10589 1-423, looked up)
COUP transcription factor 1: MAMVVSSWRDPQDDVAGGNPGGPNPAAQAARGGGGGAGEQQQQAGSGAPHTPQTPGQPGAPATPGTAGDKGQGPPGSGQSQQHIECVVCGDKSSGKHYGQFTCEGCKSFFKRSVRRNLTYTCRANRNCPIDQHHRNQCQYCRLKKCLKVGMRREAVQRGRMPPTQPNPGQYALTNGDPLNGHCYLSGYISLLLRAEPYPTSRYGSQCMQPNNIMGIENICELAARLLFSAVEWARNIPFFPDLQITDQVSLLRLTWSELFVLNAAQCSMPLHVAPLLAAAGLHASPMSADRVVAFMDHIRIFQEQVEKLKALHVDSAEYSCLKAIVLFTSDACGLSDAAHIESLQEKSQCALEEYVRSQYPNQPSRFGKLLLRLPSLRTVSSSVIEQLFFVRLVGKTPIETLIRDMLLSGSSFNWPYMSIQCS
B3: CTF2: COUP-TF2 (NR2F2), cDNA driver (protein, UniProt P24468 1-414, looked up)
COUP transcription factor 2: MAMVVSTWRDPQDEVPGSQGSQASQAPPVPGPPPGAPHTPQTPGQGGPASTPAQTAAGGQGGPGGPGSDKQQQQQHIECVVCGDKSSGKHYGQFTCEGCKSFFKRSVRRNLSYTCRANRNCPIDQHHRNQCQYCRLKKCLKVGMRREAVQRGRMPPTQPTHGQFALTNGDPLNCHSYLSGYISLLLRAEPYPTSRFGSQCMQPNNIMGIENICELAARMLFSAVEWARNIPFFPDLQITDQVALLRLTWSELFVLNAAQCSMPLHVAPLLAAAGLHASPMSADRVVAFMDHIRIFQEQVEKLKALHVDSAEYSCLKAIVLFTSDACGLSDVAHVESLQEKSQCALEEYVRSQYPNQPTRFGKLLLRLPSLRTVSSSVIEQLFFVRLVGKTPIETLIRDMLLSGSSFNWPYMAIQ
B4: CTF3: COUP-TF3 (NR2F6), cDNA driver (protein, UniProt P10588 1-404, looked up)
Nuclear receptor subfamily 2 …: MAMVTGGWGGPGGDTNGVDKAGGYPRAAEDDSASPPGAASDAEPGDEERPGLQVDCVVCGDKSSGKHYGVFTCEGCKSFFKRSIRRNLSYTCRSNRDCQIDQHHRNQCQYCRLKKCFRVGMRKEAVQRGRIPHSLPGAVAASSGSPPGSALAAVASGGDLFPGQPVSELIAQLLRAEPYPAAAGRFGAGGGAAGAVLGIDNVCELAARLLFSTVEWARHAPFFPELPVADQVALLRLSWSELFVLNAAQAALPLHTAPLLAAAGLHAAPMAAERAVAFMDQVRAFQEQVDKLGRLQVDSAEYGCLKAIALFTPDACGLSDPAHVESLQEKAQVALTEYVRAQYPSQPQRFGRLLLRLPALRAVPASLISQLFFMRLVGKTPIETLIRDMLLSGSTFNWPYGSGQ
B5: hMR: Mineralocorticoid Receptor (NR3C2, MR), cDNA driver (protein, UniProt P08235 1-984, looked up)
Mineralocorticoid receptor: METKGYHSLPEGLDMERRWGQVSQAVERSSLGPTERTDENNYMEIVNVSCVSGAIPNNSTQGSSKEKQELLPCLQQDNNRPGILTSDIKTELESKELSATVAESMGLYMDSVRDADYSYEQQNQQGSMSPAKIYQNVEQLVKFYKGNGHRPSTLSCVNTPLRSFMSDSGSSVNGGVMRAVVKSPIMCHEKSPSVCSPLNMTSSVCSPAGINSVSSTTASFGSFPVHSPITQGTPLTCSPNVENRGSRSHSPAHASNVGSPLSSPLSSMKSSISSPPSHCSVKSPVSSPNNVTLRSSVSSPANINNSRCSVSSPSNTNNRSTLSSPAASTVGSICSPVNNAFSYTASGTSAGSSTLRDVVPSPDTQEKGAQEVPFPKTEEVESAISNGVTGQLNIVQYIKPEPDGAFSSSCLGGNSKINSDSSFSVPIKQESTKHSCSGTSFKGNPTVNPFPFMDGSYFSFMDDKDYYSLSGILGPPVPGFDGNCEGSGFPVGIKQEPDDGSYYPEASIPSSAIVGVNSGGQSFHYRIGAQGTISLSRSARDQSFQHLSSFPPVNTLVESWKSHGDLSSRRSDGYPVLEYIPENVSSSTLRSVSTGSSRPSKICLVCGDEASGCHYGVVTCGSCKVFFKRAVEGQHNYLCAGRNDCIIDKIRRKNCPACRLQKCLQAGMNLGARKSKKLGKLKGIHEEQPQQQQPPPPPPPPQSPEEGTTYIAPAKEPSVNTALVPQLSTISRALTPSPVMVLENIEPEIVYAGYDSSKPDTAENLLSTLNRLAGKQMIQVVKWAKVLPGFKNLPLEDQITLIQYSWMCLSSFALSWRSYKHTNSQFLYFAPDLVFNEEKMHQSAMYELCQGMHQISLQFVRLQLTFEEYTIMKVLLLLSTIPKDGLKSQAAFEEMRTNYIKELRKMVTKCPNNSGQSWQRFYQLTKLLDSMHDLVSDLLEFCFYTFRESHALKVEFPAMLVEIISDQLPKVESGNAKPLYFHRK

system: mCAR promoter; assay: NHR-promoter luciferase screen, mCAR promoter; assay type: cell-based, mouse; settings: mCAR promoter-luciferase, CV-1 cells, NHR +/- ligand, control = 1.00
Method in brief: (§1)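 CV-1 cells were co-transfected with 50 ng NHR (homodimer or NHR/RXR heterodimer), 100 ng promoter-luciferase construct and 50 ng LacZ. Luciferase was normalized to LacZ and to a no-NHR/no-ligand control.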

| Molecule | luciferase activity normalized to lacZ activity and to a control, mCAR |
| --- | --- |
| B1 | 2.87 |
| B2 | 0.31 |
| B3 | 0.51 |
| B4 | 0.29 |
| B5 | 0.77 |

same assay, conditions: mCAR promoter; HR/ligand component

| Molecule | Luc. act., normalized to lacZ | Normalized Luc. act., normalized to control |
| --- | --- | --- |
| B1 | 109.5 | 2.9 |
| B2 | 11.8 | 0.3 |
| B3 | 19.3 | 0.5 |
| B4 | 11.2 | 0.3 |
| B5 | 29.38 | 0.8 |

system: mPOMC promoter; assay: NHR-promoter luciferase screen, mPOMC promoter; assay type: cell-based, mouse; settings: Table 6d; luciferase activity relative to control (control = 1.00)
Method in brief: as §1

| Molecule | Results of assays of transcription factor (+/- ligand) with mPOMC |
| --- | --- |
| B1 | 2.02 |
| B2 | 0.73 |
| B3 | 0.94 |
| B4 | 0.75 |
| B5 | 0.73 |

same assay, conditions: mPOMC promoter; HR component with or without ligand

| Molecule | Luc. act., normalized to lacZ |
| --- | --- |
| B1 | 139.4 |
| B2 | 50.0 |
| B3 | 64.6 |
| B4 | 51.8 |
| B5 | 50.3 |

same assay, conditions: mPOMC promoter; HR component with or without ligand; relative to control

| Molecule | Normalized Luc. act., normalized to control |
| --- | --- |
| B1 | 2.0 |
| B2 | 0.7 |
| B3 | 0.9 |
| B4 | 0.8 |
| B5 | 0.7 |

system: mDio1 promoter; assay: NHR-promoter luciferase screen, mDio1 promoter; assay type: cell-based, mouse; settings: Dio1; HR component without or with its ligand
Method in brief: as §1

| Molecule | Luc. act., normalized to lacZ | Normalized Luc. act., normalized to control |
| --- | --- | --- |
| B1 | 5.9 | 1.3 |
| B2 | 17.3 | 3.9 |
| B3 | 20.9 | 4.7 |
| B4 | 10.0 | 2.2 |
| B5 | 2.4 | 0.5 |

same assay, conditions: transcription factor +/- ligand; control = 1.00

| Molecule | mDio1 promoter reporter activity |
| --- | --- |
| B1 | 1.32 |
| B2 | 3.89 |
| B3 | 4.69 |
| B4 | 2.23 |
| B5 | 0.55 |

system: mDio2 promoter; assay: NHR-promoter luciferase screen, mDio2 promoter; assay type: cell-based, mouse; settings: Dio2; HR component without or with its ligand
Method in brief: as §1

| Molecule | Luc. act., normalized to lacZ | Normalized Luc. act., normalized to control |
| --- | --- | --- |
| B1 | 85.6 | 5.4 |
| B2 | 15.7 | 1.0 |
| B3 | 18.8 | 1.2 |
| B4 | 15.3 | 1.0 |
| B5 | 12.7 | 0.8 |

same assay, conditions: transcription factor +/- ligand; control = 1.00

| Molecule | mDio2 promoter reporter activity |
| --- | --- |
| B1 | 5.45 |
| B2 | 1.00 |
| B3 | 1.20 |
| B4 | 0.97 |
| B5 | 0.81 |

system: RevErba promoter; assay: NHR-promoter luciferase screen, RevErba (RVRa) promoter; assay type: cell-based; set-up: key to mRevErba promoter reporter activity / Normalized Luc. act., normalized to control: luciferase activity normalized to lacZ and to control (no NHR/ligand); settings: RVRa promoter; HR component without or with ligand
Method in brief: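 CV-1 cells co-transfected with NHR (pcDNA3.1, C-terminal V5H6 tag) as homodimer or RXR heterodimer, RevErbα promoter–luciferase reporter and LacZ transfection control; ligand added where applicable. Luciferase normalized to LacZ and to no-NHR/no-ligand control.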

| Molecule | Luc. act., normalized to lacZ | Normalized Luc. act., normalized to control |
| --- | --- | --- |
| B1 | 123.1 | 4.4 |
| B2 | 18.5 | 0.7 |
| B3 | 27.2 | 1.0 |
| B4 | 19.1 | 0.7 |
| B5 | 13.7 | 0.5 |

same assay, conditions: RVRa promoter; given only where activity is below control

| Molecule | negative reciprocal of normalized Luc. act. (fold repression; Table 33) |
| --- | --- |
| B2 | −1.51 |
| B3 | −1.027 |
| B4 | −1.467 |
| B5 | −2.036 |

same assay, conditions: RVRa promoter; log10 of activity normalized to control

| Molecule | normalized Luc. act. on a logarithmic scale (column without head, Table 33) |
| --- | --- |
| B1 | 0.64 |
| B2 | −0.18 |
| B3 | −0.01 |
| B4 | −0.17 |
| B5 | −0.31 |

same assay, conditions: transcription factor +/- ligand; control = 1.00

| Molecule | mRevErba promoter reporter activity |
| --- | --- |
| B1 | 4.40 |
| B2 | 0.66 |
| B3 | 0.97 |
| B4 | 0.68 |
| B5 | 0.49 |
